Results reported in patent publication US20050208103A1, “Targeted transscleral controlled release drug delivery to the retina and choroid” (priority 1999, published 2005).

Columns and labels:
[1] = format: in vitro ADME, rabbit; conditions: not told
Experimental: Dutch-belted rabbits (Pine Acres Rabbitry, Vermont, Mass.), each weighing 2-3 kg, were anesthetized with intramuscular 40 mg/kg ketamine (Abbott, N. Chicago, Ill.) and 10 mg/kg xylazine (Bayer, Shawnee Mission, Kans.). Scleral thickness was measured using a RK-5000 ultrasound pachymeter (KMI Surgical Products, West Chester, Pa.). The eyes were enucleated immediately […] sacrifice and immersed in Unisol (Alcon, Ft. Worth, Tex.) for 10 minutes or less. The adherent muscles were excised and episcleral tissue was removed with a sterile gauze sponge. Areas free of nerve and vessel emissaries were used to obtain 7×12 mm slices of sclera under microscopic caliper guidance. Each piece of sclera was used on the day of isolation.
A 5×10 mm window, 2 mm from the bottom, was created on one face of a spectrophotometry polystyrene cuvette (Sigma, St. Louis, Mo.) using a Bridgeport vertical milling machine (Bridgeport, Bridgeport, Conn.), and a piece of sclera was blotted dry and placed over this window without stretching so as not to induce asymmetric stresses. A small amount of cyanoacrylate tissue adhesive (Ellman International, Hewlett, N.Y.) was applied to the entire boundary of the tissue rim to seal its cut surface to the cuvette and prevent leakage around the sclera, and a second identical cuvette was aligned with the first cuvette and glued in place over the tissue. After the glue polymerized, within 3 to 4 minutes, the cuvette facing the “orbital” surface of the sclera was filled with Unisol. The apparatus was discarded if leakage into the “uveal” chamber was observed. Unisol was replaced with diffusion medium (see below) and the apparatus was incubated at 37° C. in 5% CO2 atmosphere for 1 hour to restore normal hydration and temperature.
Hanks' balanced salt solution without phenol red, containing 1% glutamine-penicillin and streptomycin, tetracycline (48 μg/ml), and aprotinin (1.5 μg/ml) (all from Sigma), was used as the diffusion medium. Tetracycline and aprotinin were excluded from the medium for certain experiments with FITC-BSA to evaluate the effect of these proteolysis inhibitors on scleral permeability. The pH of all solutions ranged from 7.41 to 7.45.
Fluorescein isothiocyanate (FITC) conjugated dextrans ranging in molecular weight from 4 kDa to 150 kDa, FITC-bovine serum albumin (BSA), FITC-rabbit IgG (all from Sigma), rhodamine-conjugated dextran of molecular weight 70 kDa (Molecular Probes, Eugene, Oreg.), and sodium fluorescein (Akorn, Abita Springs, La.) were studied. At least 5 experiments were performed on each compound. […] Samples were protected from light at all times before fluorescence measurements. […]

[2] = Stokes-Einstein radius; cited from earlier work
[3] = Protein precipitation with trichloroacetic acid to test FITC linkage; set-up: species or system rabbit; conditions: supernatant fluorescence

| Molecule | Permeability coefficient [1] | Permeability coefficient (mean ± sd) [1] | Molecular radius [2] | dissociation of the FITC conjugate after diffusion through sclera [3] |
| --- | --- | --- | --- | --- |
| O=C([O-])c1ccccc1-c1c2ccc(=O)cc-2oc2cc([O-])ccc12.[Na+].[Na+] [Sodium fluorescein, sodium fluorescein] | 76.3±24.1 ×10^−6 cm/s | 84.5±16.1 ×10^−6 cm/s | 0.5 nm |  |
| FITC-BSA: Fluorescein isothiocyanate conjugated bovine serum albumin (Sigma) | 5.21±1.85 ×10^−6 cm/s | 5.49±2.12 ×10^−6 cm/s | 3.62 nm | no significant dissociation |
